We go through 4 molecules from article PMC8440430 (Current biology : CB, 2021).

For experiment [1], the target named is MAD2 WT (recombinant, TEV-cleaved) (human, UniProt Q13257 1-205). The experiment in a line: SEC. Background: SEC sorts molecules by how far they enter the pores of the column.
For another experiment, the target named is His6-MAD2 (human, UniProt Q13257 1-205). The experiment in a line: pull-down.
The next experiment deals with His6-RIT1 (human, UniProt Q92963 1-219). The experiment in a line: pull-down.
Chain of His6-RIT1 (Q92963 whole entry): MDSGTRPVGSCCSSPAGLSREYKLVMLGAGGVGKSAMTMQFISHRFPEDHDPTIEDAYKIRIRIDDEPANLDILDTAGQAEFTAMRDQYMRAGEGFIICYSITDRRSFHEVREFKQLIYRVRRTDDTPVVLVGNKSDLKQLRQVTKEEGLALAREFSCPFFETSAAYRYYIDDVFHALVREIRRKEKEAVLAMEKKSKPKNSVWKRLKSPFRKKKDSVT
In experiment [2] the target is FLAG-RIT1 protein (full-length recombinant RIT1) (human, UniProt Q92963 1-219). Briefly: pull-down.
Chain of FLAG-RIT1 protein (full-length recombinant RIT1) (Q92963 whole entry): as above

In the case of SVWKRLKSPFRKKKD (peptide, UniProt Q92963 202-216, looked up) [RIT1 (202-216) peptide], the binding result in experiment [1] is reported as “binds”.

Take EHQKAWALNLNGFDVEEAKILRLSGKPQ (domain or fragment, UniProt Q12834 111-138, looked up) [GST-CDC20 111-138]: the binding result with His6-MAD2 is given as “binds”.

B1: GST-RGL3 RBD (604-703) (domain or fragment, UniProt Q3MIN7 604-703, looked up)
chain: IPLPAQQSSEARVIRVSIDNDHGNLYRSILLTSQDKAPSVVRRALQKHNVPQPWACDYQLFQVLPGDRVLLIPDNANVFYAMSPVAPRDFMLRRKEGTRN
As to B1, the binding result with His6-RIT1 is “binds”.

B2: GST-MAD2 Loop-less (LL) (natural protein, human)
chain: MALQLSREQGITLRGSAEIVAEFFSFGINSILYQRGIYPSETFTRVQKYGLTLLVTTDLELIKYLNNVVEQLKDWLYKCSVQKLVVVISNIESGEVLERWQFDIECDKGSGEKSQKAIQDEIRSVIRQITATVTFLPLLEVSCSFDLLIYTDKDLVVPEKWEESGPQFITNSEEVRLRSFTTTIHKVNSMVAYKIPVND
B2: in experiment [2], the binding result is “binds”.
